Series [1] has as its target T1, Recombinant human BMPRII/Fc chimera protein (human, UniProt Q13873 27-150).
T1 sequence: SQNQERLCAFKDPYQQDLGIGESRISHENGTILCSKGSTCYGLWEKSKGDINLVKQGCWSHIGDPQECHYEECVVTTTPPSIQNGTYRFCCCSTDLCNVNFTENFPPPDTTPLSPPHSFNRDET
The experiment in a line: SPR.

The series “cross-linking + co-IP” deals with the molecule itself. Description: cross-linking + co-IP.

Consider two molecules from article PMC2982130 (Molecular Biology of the Cell, 2010).

Usually Kd stands for the constant that tells how readily two partners part at equilibrium. A word on the stoichiometry N: it is the number of molecules, sites or subunits per partner or assembly.

B1: Recombinant human BMP2 (bone morphogenetic protein 2) (ligand)
chain: QAKHKQRKRLKSSCKRHPLYVDFSDVGWNDWIVAPPGYHAFYCHGECPFPLADHLNSTNHAIVQTLVNSVNSKIPKACCVPTELSAISMLYLDENEKVVLKNYQDMVVEGCGCR
B1: the Kd in series [1] was 164 nM.

B2: 125I-labeled recombinant human BMP4 (ligand)
chain: SPKHHSQRARKKNKNCRRHSLYVDFSDVGWNDWIVAPPGYQAFYCHGDCPFPLADHLNSTNHAIVQTLVNSVNSSIPKACCVPTELSAISMLYLDEYDKVVLKNYQEMVVEGCGCR
modifications: 125I (radioiodinated, Chloramine T method)
On to B2, for which the “stoichiometry N” value in the series “cross-linking + co-IP” was 2.
